Data reported in publication PMC3928677 (Science (New York, N.Y.), 2013).
Values joined by “and” are separate entries in the source; they are usually repeats but may differ in a detail not shown here. Equal entries are not always repeated. Where two headings read alike, the source gives them in different places.

T1: RseB (Escherichia coli, UniProt P0AFX9)
T1 sequence (P0AFX9 24-318): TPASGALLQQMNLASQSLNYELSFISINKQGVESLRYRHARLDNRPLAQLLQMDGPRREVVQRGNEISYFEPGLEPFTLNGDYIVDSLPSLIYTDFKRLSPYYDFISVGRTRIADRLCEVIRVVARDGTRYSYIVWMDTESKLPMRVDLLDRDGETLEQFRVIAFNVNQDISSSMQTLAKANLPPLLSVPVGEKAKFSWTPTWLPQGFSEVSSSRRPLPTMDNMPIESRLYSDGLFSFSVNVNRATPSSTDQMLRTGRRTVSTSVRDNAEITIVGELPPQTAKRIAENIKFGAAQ

B1: RseB (natural protein, E. coli, UniProt P0AFX9 24-318, looked up)
chain: T1 sequence (P0AFX9 24-318)
modifications: 35S label (in the elution assay from RseA^P-agarose only)
B2: MucB (natural protein, Pseudomonas aeruginosa, UniProt P38108 22-316, looked up)
chain: ADASDWLNRLAEADRQNSFQGTFVYERNGSFSTHEIWHRVESDGAVRERLLQLDGARQEVVRVDGRTQCISGGLADQLADAQLWPVRKFDPSQLASWYDLRLVGESRVAGRPAVVLAVTPRDQHRYGFELHLDRDTGLPLKSLLLNEKGQLLERFQFTQLNTGAAPAEDQLQAGAECQVVGPAKADGEKTVAWRSEWLPPGFTLTRSFMRRSPVTPDPVACLTYGDGLARFSVFIEPLHGAMVGDARSQLGPTVVVSKRLQTDDGGQMVTVVGEVPLGTAERVALSIRPEAAAQK
modifications: 35S label (in the elution assay from MucA^P-agarose only)

How the values were obtained:
RseB = target: T1, RseB; experiment: fluorescence anisotropy, displacement of fluorescent RseA^P; assay type: binding
SEC [1] = target: the molecule itself; experiment: SEC
SEC [2] = target: the molecule itself; experiment: SEC; remark: listed apart in the source

Row | Molecule | EC50 (RseB) [µM] | stoichiometry N (SEC [1]) | stoichiometry N (SEC [2])
1 | CCCCCCCCCCC[C@@H](O)CC(=O)N[C@H]1[C@H](OC[C@H]2O[C@H](OP(=O)(O)O)[C@H](NC(=O)C[C@H](O)CCCCCCCCCCC)[C@@H](O)[C@@H]2O)O[C@H](CO)[C@@H](OP(=O)(O)O)[C@@H]1O [L-IIA] | ~65 |  | 
2 | B1 |  | 4 | 2
3 | B2 |  | 4 and 2 | 
